Tests used:
[1] = target: T1, D0-deleted KIR2DL5 expressed on 3T3 cells (human, UniProt Q8N109 119-375); assay: flow cytometry, transduced 3T3 cells
T1 construct: the signal peptide 1-21 is left out; also called KIR2DL5 dD0; DO-deleted KIR2DL5
Method: (§1) FIG. 8A-8D: Generation and characterization of anti-KIR2DL5-specific mAbs. (A) The specificity of anti-KIR2DL5 mAb clone F8B30. 3T3 cells transduced with indicated KIR family members were stained with 5 μg/mL of F8B30 (open) or mIgG1 (shaded). (B) 3T3 cells transduced with DO-deleted (KIR2DL5 dD0) or D2-deleted KIR2DL5 (KIR2DL5 dD2) were stained with 5 μg/mL of clone F8B30 or commercial clone UP-R1. (C) Anti-KIR2DL5 mAb clone F8B30 recognized different KIR2DL5A and 5B alleles. 3T3 cells transduced with indicated alleles were stained with 5 μg/mL of F8B30 or UP-R1 (open) or mIgG1 (shaded). (D) Anti-KIR2DL5 mAb clone F8B30 recognized different KIR2DL5 DO domain variants. 3T3 cells transduced with indicated DO variants were stained with 0.025 μg/mL of F8B30 or UP-R1 (open) or mIgG1 (shaded). In A-D, data are representative of 2 independent experiments.

[2] = target: T2, KIR2DL5A*005 allele expressed on 3T3 cells (human); assay: flow cytometry, transduced 3T3 cells, mAb 5 µg/mL
T2 construct: also called 2D5A*005
Method: as §1

[3] = target: KIR2DL5 D0 variant T46S expressed on 3T3 cells (human, UniProt Q8N109 22-375); assay: flow cytometry on 3T3 cells expressing the KIR2DL5 D0 variant
[4] = target: KIR2DL5 D0 variant R52H expressed on 3T3 cells (human, UniProt Q8N109 22-375); assay: as above
[5] = target: KIR2DL5 D0 variant G97S expressed on 3T3 cells (human, UniProt Q8N109 22-375); assay: as above
[6] = target: KIR2DL5 D0 variant P112S expressed on 3T3 cells (human, UniProt Q8N109 22-375); assay: as above
Sequence of KIR2DL5 D0 variant P112S expressed on 3T3 cells (Q8N109 22-375 P112S): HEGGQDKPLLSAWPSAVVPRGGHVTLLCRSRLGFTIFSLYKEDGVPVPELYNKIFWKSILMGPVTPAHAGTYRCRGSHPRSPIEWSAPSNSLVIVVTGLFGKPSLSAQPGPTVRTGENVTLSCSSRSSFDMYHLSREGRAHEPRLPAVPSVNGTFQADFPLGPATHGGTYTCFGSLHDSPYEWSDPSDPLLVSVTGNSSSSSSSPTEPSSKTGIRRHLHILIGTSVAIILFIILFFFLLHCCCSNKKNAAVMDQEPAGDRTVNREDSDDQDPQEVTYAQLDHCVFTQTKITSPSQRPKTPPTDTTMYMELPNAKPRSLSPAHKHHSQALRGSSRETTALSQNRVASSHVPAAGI

T1 sequence (Q8N109 119-375, stated change not applied): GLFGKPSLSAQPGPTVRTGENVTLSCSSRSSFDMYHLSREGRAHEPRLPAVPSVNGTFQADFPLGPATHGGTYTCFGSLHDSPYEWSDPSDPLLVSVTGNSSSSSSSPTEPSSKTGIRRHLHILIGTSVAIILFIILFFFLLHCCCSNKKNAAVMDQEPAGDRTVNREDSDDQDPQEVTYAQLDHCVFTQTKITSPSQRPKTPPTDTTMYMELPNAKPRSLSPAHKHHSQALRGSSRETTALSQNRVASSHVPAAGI
Sequence of KIR2DL5 D0 variant G97S expressed on 3T3 cells (Q8N109 22-375 G97S): as the sequence (Q8N109 22-375 P112S) above, with G76S, S91P counted along it
Sequence of KIR2DL5 D0 variant R52H expressed on 3T3 cells (Q8N109 22-375 R52H): as the sequence (Q8N109 22-375 P112S) above, with R31H, S91P counted along it
T2 sequence (chain, as listed by the source): as the sequence (Q8N109 22-375 P112S) above, with S91P, N152D, G174S counted along it
Sequence of KIR2DL5 D0 variant T46S expressed on 3T3 cells (Q8N109 22-375 T46S): as the sequence (Q8N109 22-375 P112S) above, with T25S, S91P counted along it

B1: anti-KIR2DL5 mAb clone F8B30 (antibody, V domains shown)
VH: QIQLVQSGPELKKPGETVKISCKASGYTFTDYSMHWVKQAPGKGLKWMGWINTETGGPTYADDFKGRFAFSLETSATTAYLQINNLKNEDTATYFCSRDVDLYFDYWGQGTTLTVS
VL: DIQMTQSPASLSASVGETVTITCRTSENIYSYLAWYQQKQGKSPQLLVYNAKTLVEGVPSRFSGSGSGTQFSVKINSLQPEDFGNYYCQHHYGIPFTFGGGTKLEIK
notes: also called F8B30 (IgG1, κ)
binding result [1]: no binding (tested: 5 µg/mL) | binding result [2]: binds | EC50 [3]: 8.6 nM | EC50 [4]: 9.2 nM | EC50 [5]: 43.6 nM | EC50 [6]: 9.4 nM

Reference: US20250019435A1 (ALBERT EINSTEIN COLLEGE OF MEDICINE, published 2025)
